Assay results taken from paper PMC3711439, “Mechanisms of in vivo binding site selection of the hematopoietic master transcription factor PU.1”.

These binders were tested against PU.1 (human, UniProt P17947 1-270) (assay: MST; MST: 20 mM Tris-HCl pH 7.6, 1.5 mM MgCl2, 0.5 mM EGTA, 10% glycerol, 300 mM KCl, 10 mM DTT, 25 C; 50 nM Cy3-dsDNA, PU.1 1:1 dilutions from 23 uM). Details: protein: recombinant; tags: N-terminal His-tag; label: Cy3 on upper strand.

| Binder | Kd [nM] |
| --- | --- |
| PU.1 motif oligo 21 (dsDNA) DNA 1: ACGTGAGTTCCTCTTTACGT DNA 2: ACGTAAAGAGGAACTCACGT | 298 ± 15 |
| PU.1 motif oligo 22 (dsDNA) DNA 1: ACGTGACTTCCTCATCACGT DNA 2: ACGTGATGAGGAAGTCACGT | 532 ± 11 |
| PU.1 motif oligo 28 (dsDNA) DNA 1: ACGTTACTTCCTTTTAACGT DNA 2: ACGTTAAAAGGAAGTAACGT | 422 ± 29 |
| PU.1 motif oligo 1 (dsDNA) DNA 1: ACGTCACTTCCTCTTTACGT DNA 2: ACGTAAAGAGGAAGTGACGT | 164 ± 17 |
| PU.1 motif oligo 26 (dsDNA) DNA 1: ACGTAAGTTCCTCATTACGT DNA 2: ACGTAATGAGGAACTTACGT | 490 ± 141 |
| PU.1 motif oligo 27 (dsDNA) DNA 1: ACGTCTCTTCCTCTTTACGT DNA 2: ACGTAAAGAGGAAGAGACGT | 719 ± 116 |
| PU.1 motif oligo 25 (dsDNA) DNA 1: ACGTCACTTCCGCTTCACGT DNA 2: ACGTGAAGCGGAAGTGACGT | 613 ± 70 |
| PU.1 motif oligo 2 (dsDNA) DNA 1: ACGTCACTTCCTCATTACGT DNA 2: ACGTAATGAGGAAGTGACGT | 272 ± 36 |
| PU.1 motif oligo 3 (dsDNA) DNA 1: ACGTCACTTCCCCTTTACGT DNA 2: ACGTAAAGGGGAAGTGACGT | 454 ± 61 |
| PU.1 motif oligo 19 (dsDNA) DNA 1: ACGTCAGTTCCTCTTCACGT DNA 2: ACGTGAAGAGGAACTGACGT | 596 ± 7 |
| PU.1 motif oligo 14 (dsDNA) DNA 1: ACGTCACTTCCTCTGTACGT DNA 2: ACGTACAGAGGAAGTGACGT | 658 ± 267 |
| PU.1 motif oligo 24 (dsDNA) DNA 1: ACGTAACTTCCTCAATACGT DNA 2: ACGTATTGAGGAAGTTACGT | 462 ± 77 |
| PU.1 motif oligo 13 (dsDNA) DNA 1: ACGTCACTTCCTCTACACGT DNA 2: ACGTGTAGAGGAAGTGACGT | 568 ± 283 |
| PU.1 motif oligo 20 (dsDNA) DNA 1: ACGTAACTTCCCCATTACGT DNA 2: ACGTAATGGGGAAGTTACGT | 234 ± 21 |
| PU.1 motif oligo 11 (dsDNA) DNA 1: ACGTCACTTCCTCAAAACGT DNA 2: ACGTTTTGAGGAAGTGACGT | 242 ± 5 |
| PU.1 motif oligo 12 (dsDNA) DNA 1: ACGTCACTTCCTTTCTACGT DNA 2: ACGTAGAAAGGAAGTGACGT | 588 ± 95 |
| PU.1 motif oligo 30 (dsDNA) DNA 1: ACGTCAGTTCCTGTTTACGT DNA 2: ACGTAAACAGGAACTGACGT | 558 ± 77 |
| PU.1 motif oligo 29 (dsDNA) DNA 1: ACGTGACTTCCTGTTTACGT DNA 2: ACGTAAACAGGAAGTCACGT | 361 ± 54 |
| PU.1 motif oligo 16 (dsDNA) DNA 1: ACGTAACTTCCTCATAACGT DNA 2: ACGTTATGAGGAAGTTACGT | 444 ± 55 |
| PU.1 motif oligo 23 (dsDNA) DNA 1: ACGTCACTTCCCCAAAACGT DNA 2: ACGTTTTGGGGAAGTGACGT | 362 ± 103 |
| PU.1 motif oligo 18 (dsDNA) DNA 1: ACGTCACTTCCTCAACACGT DNA 2: ACGTGTTGAGGAAGTGACGT | 452 ± 107 |
| PU.1 motif oligo 17 (dsDNA) DNA 1: ACGTCACTTCCTCCCTACGT DNA 2: ACGTAGGGAGGAAGTGACGT | 470 ± 26 |
| PU.1 motif oligo 15 (dsDNA) DNA 1: ACGTGACTTCCTCTCTACGT DNA 2: ACGTAGAGAGGAAGTCACGT | 324 ± 45 |
